Experimental findings from patent publication US20240124528A1 (ACADEMIA SINICA, published 2024) are described below.

The chains are these.
B3: IL-17RB-Flag (Flag-tagged IL-17RB, wild type) (receptor)
chain: REPTVQCGSETGPSPEWMLQHDLIPGDLRDLRVEPVTTSVATGDYSILMNVSWVLRADASIRLLKATKICVTGKSNFQSYSCVRCNYTEAFQTQTRPSGGKWTFSYIGFPVELNTVYFIGAHNIPNANMNEDGPSMSVNFTSPGCLDHIMKYKKKCVKAGSLWDPNITACKKNEETVEVNFTTTPLGNRYMALIQHSTIIGFSQVFEPHQKKQTRASVVIPVTGDSEGATVQLTPYFPTCGSDCIRHKGTVVLCPQTGVPFPLDNNKSKPGGWLPLLLLSLLVATWVLVAGIYLMWRHERIKKTSFSTTTLLPPIKVLVVYPSEICFHHTICYFTEFLQNHCRSEVILEKWQKKKIAEMGPVQWLATQKKAADKVVFLLSNDVNSVCDGTCGKSEGSPSENSQDLFPLAFNLFCSDLRSQIHLHKYVVVYFREIDTKDDYNALSVCPKYHLMKDATAFCAELLHVKQQVSAGKRSQACHDGCCSL
notes: The construct as expressed; also called Flag-IL-17RB; Flag-tagged WT IL-17RB; not shown: Flag tag
B5: IL-17RB-HA (C-terminally HA-tagged full-length IL-17RB, wild type) (receptor)
chain: REPTVQCGSETGPSPEWMLQHDLIPGDLRDLRVEPVTTSVATGDYSILMNVSWVLRADASIRLLKATKICVTGKSNFQSYSCVRCNYTEAFQTQTRPSGGKWTFSYIGFPVELNTVYFIGAHNIPNANMNEDGPSMSVNFTSPGCLDHIMKYKKKCVKAGSLWDPNITACKKNEETVEVNFTTTPLGNRYMALIQHSTIIGFSQVFEPHQKKQTRASVVIPVTGDSEGATVQLTPYFPTCGSDCIRHKGTVVLCPQTGVPFPLDNNKSKPGGWLPLLLLSLLVATWVLVAGIYLMWRHERIKKTSFSTTTLLPPIKVLVVYPSEICFHHTICYFTEFLQNHCRSEVILEKWQKKKIAEMGPVQWLATQKKAADKVVFLLSNDVNSVCDGTCGKSEGSPSENSQDLFPLAFNLFCSDLRSQIHLHKYVVVYFREIDTKDDYNALSVCPKYHLMKDATAFCAELLHVKQQVSAGKRSQACHDGCCSL
notes: Full-length IL-17RB subcloned into pcDNA3.1, expressed in 293T, IL-17RB-KO BxPC3 or SU.86.86 cells; also called HA-IL-17RB; HA-tagged WT IL-17RB; not shown: HA tag, C-terminal

Data set [1] concerns the target T1, TRIM56 (tripartite-motif 56), endogenous (human, UniProt Q9BRZ2 1-755).
T1 construct: also called ubiquitin E3 ligase TRIM56
T1 sequence (looked up): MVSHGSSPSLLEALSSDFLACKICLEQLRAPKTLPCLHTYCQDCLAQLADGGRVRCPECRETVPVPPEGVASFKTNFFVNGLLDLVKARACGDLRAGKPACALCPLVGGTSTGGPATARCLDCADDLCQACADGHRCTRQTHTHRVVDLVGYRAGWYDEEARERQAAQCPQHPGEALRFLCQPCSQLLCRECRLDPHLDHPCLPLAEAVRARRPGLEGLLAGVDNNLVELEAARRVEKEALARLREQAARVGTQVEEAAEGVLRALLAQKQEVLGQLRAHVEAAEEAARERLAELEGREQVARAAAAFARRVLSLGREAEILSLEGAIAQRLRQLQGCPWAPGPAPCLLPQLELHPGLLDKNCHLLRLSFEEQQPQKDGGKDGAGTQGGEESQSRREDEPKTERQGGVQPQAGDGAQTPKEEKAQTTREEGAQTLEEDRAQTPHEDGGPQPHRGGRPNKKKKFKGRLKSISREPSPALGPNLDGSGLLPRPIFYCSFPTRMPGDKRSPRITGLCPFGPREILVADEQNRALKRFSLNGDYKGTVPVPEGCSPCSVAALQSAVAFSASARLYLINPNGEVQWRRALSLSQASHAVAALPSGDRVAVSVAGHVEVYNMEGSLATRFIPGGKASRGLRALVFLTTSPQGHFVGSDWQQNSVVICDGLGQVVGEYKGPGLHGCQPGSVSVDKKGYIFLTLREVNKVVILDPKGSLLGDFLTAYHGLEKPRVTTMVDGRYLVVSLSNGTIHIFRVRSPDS
As to the kind of experiment: co-IP with anti-Flag beads (FIG. 17F).

Data set [2] has as its target T2, HA-TRIM56 (TRIM56-HA, HA-tagged tripartite-motif 56) (UniProt Q9BRZ2 1-755).
T2 construct: also called HA-tagged TRIM56; HA-TIM56; not shown: HA tag of the C-HA vector
T2 sequence (looked up): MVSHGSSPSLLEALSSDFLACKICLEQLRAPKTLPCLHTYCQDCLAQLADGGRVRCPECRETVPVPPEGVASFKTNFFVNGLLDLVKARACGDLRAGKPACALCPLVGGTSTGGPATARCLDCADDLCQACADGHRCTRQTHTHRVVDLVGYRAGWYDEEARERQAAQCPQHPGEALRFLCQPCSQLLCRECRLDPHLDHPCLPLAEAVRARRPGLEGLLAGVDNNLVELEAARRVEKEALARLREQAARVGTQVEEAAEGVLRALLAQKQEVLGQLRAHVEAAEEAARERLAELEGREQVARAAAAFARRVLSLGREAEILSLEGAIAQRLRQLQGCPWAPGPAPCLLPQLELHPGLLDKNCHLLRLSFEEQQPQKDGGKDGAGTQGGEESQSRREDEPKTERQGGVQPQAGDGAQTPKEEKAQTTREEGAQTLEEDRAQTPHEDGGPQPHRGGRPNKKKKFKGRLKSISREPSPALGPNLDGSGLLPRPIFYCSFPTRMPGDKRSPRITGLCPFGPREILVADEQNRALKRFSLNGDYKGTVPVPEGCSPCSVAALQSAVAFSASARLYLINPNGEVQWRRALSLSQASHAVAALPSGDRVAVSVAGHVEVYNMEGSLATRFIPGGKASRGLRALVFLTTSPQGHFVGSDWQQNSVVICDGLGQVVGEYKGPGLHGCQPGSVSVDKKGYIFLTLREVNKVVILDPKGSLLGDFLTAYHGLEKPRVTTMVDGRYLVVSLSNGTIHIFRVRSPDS
As to the kind of experiment: reciprocal co-IP, 293T cells, rIL-17B (FIG. 6D).

Data set [3] concerns the target B5. As to the kind of experiment: co-IP with anti-HA beads, 293T cells, rIL-17B (FIG. 4B).
Data set [4] concerns the molecule itself. As to the kind of experiment: Duolink in situ interaction assay with anti-IL-17RB (D9), CFPAC1 cells, 50 ng/ml rIL-17B (FIG. 4D).
Data set [5] concerns the target B3. As to the kind of experiment: Duolink in situ interaction assay with anti-HA and anti-Flag, IL-17RB-KO BxPC3 cells (FIG. 4C, FIG. 13D).
The target of data set [6] is B5. Description: co-IP with anti-HA beads, IL-17RB-KO BxPC3 cells, 50 ng/ml rIL-17B (FIG. 14B).
Data set [7] has as its target T2, HA-TRIM56 (TRIM56-HA, HA-tagged …). Description: co-IP in 293T cells (FIG. 6B) and native-PAGE of mixed purified proteins (FIG. 17A).

B1: IL-17RB ΔN458˜V462 (Del-6), Flag-tagged (receptor)
chain: REPTVQCGSETGPSPEWMLQHDLIPGDLRDLRVEPVTTSVATGDYSILMNVSWVLRADASIRLLKATKICVTGKSNFQSYSCVRCNYTEAFQTQTRPSGGKWTFSYIGFPVELNTVYFIGAHNIPNANMNEDGPSMSVNFTSPGCLDHIMKYKKKCVKAGSLWDPNITACKKNEETVEVNFTTTPLGNRYMALIQHSTIIGFSQVFEPHQKKQTRASVVIPVTGDSEGATVQLTPYFPTCGSDCIRHKGTVVLCPQTGVPFPLDNNKSKPGGWLPLLLLSLLVATWVLVAGIYLMWRHERIKKTSFSTTTLLPPIKVLVVYPSEICFHHTICYFTEFLQNHCRSEVILEKWQKKKIAEMGPVQWLATQKKAADKVVFLLSNDVNSVCDGTCGKSEGSPSENSQDLFPLAFNLFCSDLRSQIHLHKYVVVYFREIDTKDDYCPKYHLMKDATAFCAELLHVKQQVSAGKRSQACHDGCCSL
notes: also called Del-6 (ΔN458-V462) IL-17RB; not shown: Flag tag
As to B1, the binding result in data set [1] is “no binding (tested: 50 ng/ml rIL-17B)”; in data set [2], “no binding”.

B2: IL-17RB ΔV403˜S416 (Del-3), Flag-tagged (receptor)
chain: REPTVQCGSETGPSPEWMLQHDLIPGDLRDLRVEPVTTSVATGDYSILMNVSWVLRADASIRLLKATKICVTGKSNFQSYSCVRCNYTEAFQTQTRPSGGKWTFSYIGFPVELNTVYFIGAHNIPNANMNEDGPSMSVNFTSPGCLDHIMKYKKKCVKAGSLWDPNITACKKNEETVEVNFTTTPLGNRYMALIQHSTIIGFSQVFEPHQKKQTRASVVIPVTGDSEGATVQLTPYFPTCGSDCIRHKGTVVLCPQTGVPFPLDNNKSKPGGWLPLLLLSLLVATWVLVAGIYLMWRHERIKKTSFSTTTLLPPIKVLVVYPSEICFHHTICYFTEFLQNHCRSEVILEKWQKKKIAEMGPVQWLATQKKAADKVVFLLSNDVNSENSQDLFPLAFNLFCSDLRSQIHLHKYVVVYFREIDTKDDYNALSVCPKYHLMKDATAFCAELLHVKQQVSAGKRSQACHDGCCSL
notes: not shown: Flag tag
On to B2, for which, in data set [2], the binding result is recorded as “no binding”.
For B3, the binding result in data set [3] was “binds”.

B4: interleukin-17 receptor B (IL-17RB), human, endogenous in pancreatic cancer cells (receptor)
chain: REPTVQCGSETGPSPEWMLQHDLIPGDLRDLRVEPVTTSVATGDYSILMNVSWVLRADASIRLLKATKICVTGKSNFQSYSCVRCNYTEAFQTQTRPSGGKWTFSYIGFPVELNTVYFIGAHNIPNANMNEDGPSMSVNFTSPGCLDHIMKYKKKCVKAGSLWDPNITACKKNEETVEVNFTTTPLGNRYMALIQHSTIIGFSQVFEPHQKKQTRASVVIPVTGDSEGATVQLTPYFPTCGSDCIRHKGTVVLCPQTGVPFPLDNNKSKPGGWLPLLLLSLLVATWVLVAGIYLMWRHERIKKTSFSTTTLLPPIKVLVVYPSEICFHHTICYFTEFLQNHCRSEVILEKWQKKKIAEMGPVQWLATQKKAADKVVFLLSNDVNSVCDGTCGKSEGSPSENSQDLFPLAFNLFCSDLRSQIHLHKYVVVYFREIDTKDDYNALSVCPKYHLMKDATAFCAELLHVKQQVSAGKRSQACHDGCCSL
notes: Endogenous receptor of CFPAC1 / BxPC3 cells, precipitated from lysates or stained in situ; also called interleukin-17B receptor
For the molecule B4, the binding result in data set [4] is “binds”.
In the case of B5, the binding result in data set [5] is reported as “binds”.

B6: IL-17RB Y447F, Flag-tagged (receptor)
chain: REPTVQCGSETGPSPEWMLQHDLIPGDLRDLRVEPVTTSVATGDYSILMNVSWVLRADASIRLLKATKICVTGKSNFQSYSCVRCNYTEAFQTQTRPSGGKWTFSYIGFPVELNTVYFIGAHNIPNANMNEDGPSMSVNFTSPGCLDHIMKYKKKCVKAGSLWDPNITACKKNEETVEVNFTTTPLGNRYMALIQHSTIIGFSQVFEPHQKKQTRASVVIPVTGDSEGATVQLTPYFPTCGSDCIRHKGTVVLCPQTGVPFPLDNNKSKPGGWLPLLLLSLLVATWVLVAGIYLMWRHERIKKTSFSTTTLLPPIKVLVVYPSEICFHHTICYFTEFLQNHCRSEVILEKWQKKKIAEMGPVQWLATQKKAADKVVFLLSNDVNSVCDGTCGKSEGSPSENSQDLFPLAFNLFCSDLRSQIHLHKYVVVFFREIDTKDDYNALSVCPKYHLMKDATAFCAELLHVKQQVSAGKRSQACHDGCCSL
notes: also called Y447F mutant of IL-17RB; not shown: Flag tag
Regarding B6, the results for the binding result in data set [6] and in data set [7] were “binds” and “no binding”, respectively.

B7: IL-17RB ΔK470˜Q484 (Del-7), Flag-tagged (receptor)
chain: REPTVQCGSETGPSPEWMLQHDLIPGDLRDLRVEPVTTSVATGDYSILMNVSWVLRADASIRLLKATKICVTGKSNFQSYSCVRCNYTEAFQTQTRPSGGKWTFSYIGFPVELNTVYFIGAHNIPNANMNEDGPSMSVNFTSPGCLDHIMKYKKKCVKAGSLWDPNITACKKNEETVEVNFTTTPLGNRYMALIQHSTIIGFSQVFEPHQKKQTRASVVIPVTGDSEGATVQLTPYFPTCGSDCIRHKGTVVLCPQTGVPFPLDNNKSKPGGWLPLLLLSLLVATWVLVAGIYLMWRHERIKKTSFSTTTLLPPIKVLVVYPSEICFHHTICYFTEFLQNHCRSEVILEKWQKKKIAEMGPVQWLATQKKAADKVVFLLSNDVNSVCDGTCGKSEGSPSENSQDLFPLAFNLFCSDLRSQIHLHKYVVVYFREIDTKDDYNALSVCPKYHLMQVSAGKRSQACHDGCCSL
notes: not shown: Flag tag
Turning to B7, the binding result in data set [2] is on record as “no binding”.
